Fewer inactive variants are shown than the library holds.
Experiments:
biotinyl-Leu-oxazolone = assay: self-aminoacylation, catalytic enhancement (BLO) (fold over background); higher = more active; k-Seq, kA / k0A0; sequences stand for … in GGGAAUGGAUCCACAUCUACGAAUUC…UUCACUGCAGACUUGACGAAGCUG
Outline: (§1)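 Mutagenized RNA pools with a 21-nt variable region (0.43 μM) were reacted with each biotinyl-aminoacyl-oxazolone at 2–1250 μM for 90 minutes at room temperature, in 50 μL HEPES/NaCl/KCl/MgCl2/CaCl2 buffer containing 5% acetonitrile at pH 6.9–7.0. RNA captured on streptavidin was quantified by triplicate qPCR and by Illumina sequencing. The fraction reacted for each sequence was fit to a pseudo-first-order model with bootstrapping, and catalytic enhancement is the median kA divided by the uncatalyzed rate, taken as the low-activity peak of a bimodal Gaussian fit.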

biotinyl-Phe-oxazolone = assay: self-aminoacylation, catalytic enhancement (BFO) (fold over background); higher = more active; k-Seq, kA / k0A0; sequences stand for … in GGGAAUGGAUCCACAUCUACGAAUUC…UUCACUGCAGACUUGACGAAGCUG
Outline: as §1

biotinyl-Trp-oxazolone = assay: self-aminoacylation, catalytic enhancement (BWO) (fold over background); higher = more active; k-Seq, kA / k0A0; sequences stand for … in GGGAAUGGAUCCACAUCUACGAAUUC…UUCACUGCAGACUUGACGAAGCUG
Outline: as §1

biotinyl-Met-oxazolone = assay: self-aminoacylation, catalytic enhancement (BMO) (fold over background); higher = more active; k-Seq, kA / k0A0; sequences stand for … in GGGAAUGGAUCCACAUCUACGAAUUC…UUCACUGCAGACUUGACGAAGCUG
Outline: as §1

biotinyl-Val-oxazolone = assay: self-aminoacylation, catalytic enhancement (BVO) (fold over background); higher = more active; k-Seq, kA / k0A0; sequences stand for … in GGGAAUGGAUCCACAUCUACGAAUUC…UUCACUGCAGACUUGACGAAGCUG
Outline: as §1

biotinyl-Ile-oxazolone = assay: self-aminoacylation, catalytic enhancement (BIO) (fold over background); higher = more active; k-Seq, kA / k0A0; sequences stand for … in GGGAAUGGAUCCACAUCUACGAAUUC…UUCACUGCAGACUUGACGAAGCUG
Outline: as §1

| Sequence | self-aminoacylation (biotinyl-Leu-oxazolone) | self-aminoacylation (biotinyl-Phe-oxazolone) | self-aminoacylation (biotinyl-Trp-oxazolone) | self-aminoacylation (biotinyl-Met-oxazolone) | self-aminoacylation (biotinyl-Val-oxazolone) | self-aminoacylation (biotinyl-Ile-oxazolone) |
| --- | --- | --- | --- | --- | --- | --- |
| GCACACUUCAAGCGAUCGGUC [Fam1B.1 aminoacylation ribozyme variant] | 1.54 | 1.41 | 2.19 | 1.33 | 1.82 | 1.66 |
| AAGUUUCCUAAUAGACGCAAG [Fam3.1 aminoacylation ribozyme variant] | 0.671 | 1.32 | 0.895 | 0.632 | 0.805 | 0.82 |
| AUUCCCGUGGUCAUCGAGUGA [Fam2.1 aminoacylation ribozyme variant] | 9.05 | 63.3 | 11.3 | 8.45 | 5.81 | 5.17 |
| AUGACCCUGGUCAUCGAAUGA [Fam2.1 aminoacylation ribozyme variant] | 2.06 | 6.66 | 1.44 | 1.46 | 1.35 | 1.59 |
| AUUCACCUAGGUCAUGCGGUG [Fam2.2 aminoacylation ribozyme variant] | 6.55 | 33.8 | 5.3 | 4.77 | 4.13 | 4.12 |
| GUUCACCAAGGUCAUCGGGUG [Fam2.2 aminoacylation ribozyme variant] | 8.83 | 64.7 | 6 | 6.5 | 4.45 | 4.16 |
| CCACCUUUCAAGCAAUCGGUC [Fam1B.1 aminoacylation ribozyme variant] | 1.35 | 2.62 | 1.97 | 1.4 | 1.72 | 1.44 |
| AAGUUUGCUAAUCGUCGCGAG [Fam3.1 aminoacylation ribozyme variant] | 1.36 | 1.8 | 1.49 | 1.27 | 1.01 | 1.04 |
| CUACUUCAAAGAAUCGGUUUG [Fam1A.1 aminoacylation ribozyme variant] | 0.845 | 5.29 | 4.68 | 0.933 | 0.785 | 0.892 |
| AAGUUUGGUAAUAGUCACAAG [Fam3.1 aminoacylation ribozyme variant] | 0.902 | 1.51 | 0.739 | 1.01 | 1.07 | 1.04 |
| AUUACCCAGGUCUUCGAGUGA [Fam2.1 aminoacylation ribozyme variant] | 6.86 | 39.3 | 8.2 | 5.69 | 3.61 | 3.65 |
| CCACUCUUCGAGCAAUCGGUC [Fam1B.1 aminoacylation ribozyme variant] | 0.964 | 0.996 | 1.32 | 1.03 | 1.24 | 1.19 |
| ACUCACCUACGUCAUCGGGUG [Fam2.2 aminoacylation ribozyme variant] | 7.79 | 57.3 | 6.64 | 6.25 | 4.69 | 3.98 |
| UCACACUUCAAGCAAACGGUC [Fam1B.1 aminoacylation ribozyme variant] | 0.506 | 0.679 | 0.586 | 0.682 | 0.792 | 0.639 |
| CGACUUCACACAAUCGGUCUG [Fam1A.1 aminoacylation ribozyme variant] | 1.23 | 1.07 | 1.01 | 0.934 | 1.14 | 1.05 |
| CCACACUUCGAGCAAUCGGCC [Fam1B.1 aminoacylation ribozyme variant] | 1.94 | 7.13 | 2.11 | 1.61 | 2.77 | 1.64 |
| AUUCACUGAGGUCAUCGGGUG [Fam2.2 aminoacylation ribozyme variant] | 9.09 | 55.7 | 5.64 | 7.22 | 4.37 | 4.51 |
| CUACUUCAGACAAGCGGUCUG [Fam1A.1 aminoacylation ribozyme variant] | 0.966 | 0.263 | 0.406 | 1.26 | 0.96 | 0.839 |
| AAGUUUGUUAAUAGUCGCAAA [Fam3.1 aminoacylation ribozyme variant] | 1.68 | 2.15 | 1.43 | 1.63 | 1.32 | 1.8 |
| AUGACCCUCGUCAUCGAGUGA [Fam2.1 aminoacylation ribozyme variant] | 3.43 | 14.7 | 3.73 | 3.35 | 2.06 | 2.05 |
| AUUAACCUAGGUCAUGGGGUG [Fam2.2 aminoacylation ribozyme variant] | 4.82 | 22.6 | 3.44 | 3.3 | 2.38 | 2.28 |
| AAGUUUGCUAAUCGUCGCAAU [Fam3.1 aminoacylation ribozyme variant] | 1.04 | 0.833 | 1.03 | 1.3 | 1.3 | 1.39 |
| AAGUUUUCUAAUAGUCGCCAG [Fam3.1 aminoacylation ribozyme variant] | 1.15 | 2.81 | 1.91 | 1.54 | 1.32 | 1.78 |
| AUACACCUAGGUCAUCGGUUG [Fam2.2 aminoacylation ribozyme variant] | 1.31 | 3.92 | 1.54 | 1.44 | 1.24 | 1.1 |
| AAGUUUCCUAAUAGUCGCUAG [Fam3.1 aminoacylation ribozyme variant] | 1.39 | 2.18 | 1.97 | 1.78 | 1.67 | 1.61 |
| AUUCCCAUGGUCAUCGAGUGA [Fam2.1 aminoacylation ribozyme variant] | 11.3 | 51.4 | 12.9 | 10.4 | 5.75 | 5.75 |
